Results taken from patent US20260167699A1 (Chugai, published 2026).

T1: FcγRIIa(R) (human, UniProt P12318 34-217)
T1 construct: extracellular domain; also called 2aR
T1 sequence: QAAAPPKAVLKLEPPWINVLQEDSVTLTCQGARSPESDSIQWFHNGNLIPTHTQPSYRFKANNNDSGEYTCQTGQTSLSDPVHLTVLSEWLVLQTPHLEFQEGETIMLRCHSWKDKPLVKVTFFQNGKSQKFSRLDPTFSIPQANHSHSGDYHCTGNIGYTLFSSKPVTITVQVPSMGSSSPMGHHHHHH

T2: FcγRIIb (human, UniProt P31994 43-217)
T2 construct: extracellular domain; also called 2b
T2 sequence: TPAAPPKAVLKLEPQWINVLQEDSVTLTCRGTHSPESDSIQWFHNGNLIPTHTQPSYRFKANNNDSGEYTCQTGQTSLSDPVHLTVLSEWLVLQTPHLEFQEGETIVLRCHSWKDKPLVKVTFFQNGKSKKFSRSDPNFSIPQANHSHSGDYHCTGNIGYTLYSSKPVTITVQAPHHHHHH

T3: FcγRIIa(H) (human, UniProt P12318 34-217)
T3 construct: extracellular domain; also called 2aH
T3 sequence: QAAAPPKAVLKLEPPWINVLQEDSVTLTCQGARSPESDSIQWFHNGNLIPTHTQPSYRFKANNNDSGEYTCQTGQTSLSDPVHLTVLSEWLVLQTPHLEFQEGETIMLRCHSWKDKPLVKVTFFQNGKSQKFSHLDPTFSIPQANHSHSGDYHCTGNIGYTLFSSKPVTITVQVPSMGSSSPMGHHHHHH


Tests used:
Test in all cases: SPR, relative to GpH7-A5/GpH7-B3/GpL16-k0 =100
FcγRIIa(R) = biological target: T1, FcγRIIa(R)
FcγRIIb = biological target: T2, FcγRIIb
FcγRIa = biological target: T4, FcγRIa (human, UniProt P12314 16-292)
T4 construct: extracellular domain; also called 1a
T4 sequence (P12314 other isoform, or with tags, fused parts or gaps): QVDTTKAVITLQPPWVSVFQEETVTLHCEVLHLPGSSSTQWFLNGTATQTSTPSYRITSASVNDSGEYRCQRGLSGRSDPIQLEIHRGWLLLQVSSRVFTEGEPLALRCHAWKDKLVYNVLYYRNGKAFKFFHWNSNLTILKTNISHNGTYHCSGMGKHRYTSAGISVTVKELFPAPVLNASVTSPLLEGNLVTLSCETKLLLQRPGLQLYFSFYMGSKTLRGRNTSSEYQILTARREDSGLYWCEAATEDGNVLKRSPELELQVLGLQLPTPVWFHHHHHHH

FcγRIIa(H) = biological target: T3, FcγRIIa(H)

Binder | He/Con 2aR (FcγRIIa(R)) [%] | He/Con 2b (FcγRIIb) [%] | He/Con 1a (FcγRIa) [%] | He/Con 2aH (FcγRIIa(H)) [%]
GpH7-A5/GpH7-B3 variant S298_19Q/GpL16-k0 (antibody, human IgG1, kappa, He Ab: heterodimerized IgG1, one H chain mutated) heavy 1: not shown heavy 2: not shown light: DIVMTQSPLSLPVTPGEPASISCQASESLVHSNRNTYLHWYLQKPGQSPQLLIYKVSNRFSGVPDRFSGSGSGTDFTLKISRVEAEDVGVYYCSQNTHVPPTFGQGTKVEIERTVAAPSVFIFPPSDEQLKSGTASVVCLLNNFYPREAKVQWKVDNALQSGNSQESVTEQDSKDSTYSLSSTLTLSKADYEKHKVYACEVTHQGLSSPVTKSFNRGEC | 90.9 | 74.3 | 106 | 88.9
GpH7-A5/GpH7-B3 variant S298_15Y/GpL16-k0 (antibody, human IgG1, kappa, He Ab: heterodimerized IgG1, one H chain mutated) heavy 1: not shown heavy 2: not shown light: DIVMTQSPLSLPVTPGEPASISCQASESLVHSNRNTYLHWYLQKPGQSPQLLIYKVSNRFSGVPDRFSGSGSGTDFTLKISRVEAEDVGVYYCSQNTHVPPTFGQGTKVEIERTVAAPSVFIFPPSDEQLKSGTASVVCLLNNFYPREAKVQWKVDNALQSGNSQESVTEQDSKDSTYSLSSTLTLSKADYEKHKVYACEVTHQGLSSPVTKSFNRGEC | 75.7 | 62.2 | 104 | 71.2
GpH7-A5/GpH7-B3 variant S298_11K/GpL16-k0 (antibody, human IgG1, kappa, He Ab: heterodimerized IgG1, one H chain mutated) heavy 1: not shown heavy 2: not shown light: DIVMTQSPLSLPVTPGEPASISCQASESLVHSNRNTYLHWYLQKPGQSPQLLIYKVSNRFSGVPDRFSGSGSGTDFTLKISRVEAEDVGVYYCSQNTHVPPTFGQGTKVEIERTVAAPSVFIFPPSDEQLKSGTASVVCLLNNFYPREAKVQWKVDNALQSGNSQESVTEQDSKDSTYSLSSTLTLSKADYEKHKVYACEVTHQGLSSPVTKSFNRGEC | 91 | 62.2 | 106 | 63.9
GpH7-A5/GpH7-B3 variant S298_01G/GpL16-k0 (antibody, human IgG1, kappa, He Ab: heterodimerized IgG1, one H chain mutated) heavy 1: not shown heavy 2: not shown light: DIVMTQSPLSLPVTPGEPASISCQASESLVHSNRNTYLHWYLQKPGQSPQLLIYKVSNRFSGVPDRFSGSGSGTDFTLKISRVEAEDVGVYYCSQNTHVPPTFGQGTKVEIERTVAAPSVFIFPPSDEQLKSGTASVVCLLNNFYPREAKVQWKVDNALQSGNSQESVTEQDSKDSTYSLSSTLTLSKADYEKHKVYACEVTHQGLSSPVTKSFNRGEC | 94.5 | 81.2 | 100 | 71.4
GpH7-A5/GpH7-B3 variant S298_08L/GpL16-k0 (antibody, human IgG1, kappa, He Ab: heterodimerized IgG1, one H chain mutated) heavy 1: not shown heavy 2: not shown light: DIVMTQSPLSLPVTPGEPASISCQASESLVHSNRNTYLHWYLQKPGQSPQLLIYKVSNRFSGVPDRFSGSGSGTDFTLKISRVEAEDVGVYYCSQNTHVPPTFGQGTKVEIERTVAAPSVFIFPPSDEQLKSGTASVVCLLNNFYPREAKVQWKVDNALQSGNSQESVTEQDSKDSTYSLSSTLTLSKADYEKHKVYACEVTHQGLSSPVTKSFNRGEC | 100 | 110 | 104 | 83
GpH7-A5/GpH7-B3 variant S298_04F/GpL16-k0 (antibody, human IgG1, kappa, He Ab: heterodimerized IgG1, one H chain mutated) heavy 1: not shown heavy 2: not shown light: DIVMTQSPLSLPVTPGEPASISCQASESLVHSNRNTYLHWYLQKPGQSPQLLIYKVSNRFSGVPDRFSGSGSGTDFTLKISRVEAEDVGVYYCSQNTHVPPTFGQGTKVEIERTVAAPSVFIFPPSDEQLKSGTASVVCLLNNFYPREAKVQWKVDNALQSGNSQESVTEQDSKDSTYSLSSTLTLSKADYEKHKVYACEVTHQGLSSPVTKSFNRGEC | 80.4 | 66.3 | 106 | 75.5
GpH7-A5/GpH7-B3 variant Q295_01G/GpL16-k0 (antibody, human IgG1, kappa, He Ab: heterodimerized IgG1, one H chain mutated) heavy 1: not shown heavy 2: not shown light: DIVMTQSPLSLPVTPGEPASISCQASESLVHSNRNTYLHWYLQKPGQSPQLLIYKVSNRFSGVPDRFSGSGSGTDFTLKISRVEAEDVGVYYCSQNTHVPPTFGQGTKVEIERTVAAPSVFIFPPSDEQLKSGTASVVCLLNNFYPREAKVQWKVDNALQSGNSQESVTEQDSKDSTYSLSSTLTLSKADYEKHKVYACEVTHQGLSSPVTKSFNRGEC | 60.3 | 51.6 | 96.1 | 62.5
GpH7-A5/GpH7-B3 variant S298_02A/GpL16-k0 (antibody, human IgG1, kappa, He Ab: heterodimerized IgG1, one H chain mutated) heavy 1: not shown heavy 2: not shown light: DIVMTQSPLSLPVTPGEPASISCQASESLVHSNRNTYLHWYLQKPGQSPQLLIYKVSNRFSGVPDRFSGSGSGTDFTLKISRVEAEDVGVYYCSQNTHVPPTFGQGTKVEIERTVAAPSVFIFPPSDEQLKSGTASVVCLLNNFYPREAKVQWKVDNALQSGNSQESVTEQDSKDSTYSLSSTLTLSKADYEKHKVYACEVTHQGLSSPVTKSFNRGEC | 87.2 | 74.4 | 103 | 74.3

Other lines, results leading:

He/Con 2aR (FcγRIIa(R)) [%] | He/Con 2b (FcγRIIb) [%] | He/Con 1a (FcγRIa) [%] | He/Con 2aH (FcγRIIa(H)) [%] | Binder
72.7 | 59.5 | 81.4 | 57.6 | GpH7-A5/GpH7-B3 variant P329_10E/GpL16-k0 (antibody, human IgG1, kappa, He Ab: heterodimerized IgG1, one H chain mutated) heavy 1: not shown heavy 2: not shown light: DIVMTQSPLSLPVTPGEPASISCQASESLVHSNRNTYLHWYLQKPGQSPQLLIYKVSNRFSGVPDRFSGSGSGTDFTLKISRVEAEDVGVYYCSQNTHVPPTFGQGTKVEIERTVAAPSVFIFPPSDEQLKSGTASVVCLLNNFYPREAKVQWKVDNALQSGNSQESVTEQDSKDSTYSLSSTLTLSKADYEKHKVYACEVTHQGLSSPVTKSFNRGEC
86.2 | 71.5 | 104 | 84.9 | GpH7-A5/GpH7-B3 variant S298_07I/GpL16-k0 (antibody, human IgG1, kappa, He Ab: heterodimerized IgG1, one H chain mutated) heavy 1: not shown heavy 2: not shown light: DIVMTQSPLSLPVTPGEPASISCQASESLVHSNRNTYLHWYLQKPGQSPQLLIYKVSNRFSGVPDRFSGSGSGTDFTLKISRVEAEDVGVYYCSQNTHVPPTFGQGTKVEIERTVAAPSVFIFPPSDEQLKSGTASVVCLLNNFYPREAKVQWKVDNALQSGNSQESVTEQDSKDSTYSLSSTLTLSKADYEKHKVYACEVTHQGLSSPVTKSFNRGEC
94.2 | 79 | 104 | 96.2 | GpH7-A5/GpH7-B3 variant S298_14T/GpL16-k0 (antibody, human IgG1, kappa, He Ab: heterodimerized IgG1, one H chain mutated) heavy 1: not shown heavy 2: not shown light: DIVMTQSPLSLPVTPGEPASISCQASESLVHSNRNTYLHWYLQKPGQSPQLLIYKVSNRFSGVPDRFSGSGSGTDFTLKISRVEAEDVGVYYCSQNTHVPPTFGQGTKVEIERTVAAPSVFIFPPSDEQLKSGTASVVCLLNNFYPREAKVQWKVDNALQSGNSQESVTEQDSKDSTYSLSSTLTLSKADYEKHKVYACEVTHQGLSSPVTKSFNRGEC
84.7 | 64.4 | 105 | 80.2 | GpH7-A5/GpH7-B3 variant S298_16H/GpL16-k0 (antibody, human IgG1, kappa, He Ab: heterodimerized IgG1, one H chain mutated) heavy 1: not shown heavy 2: not shown light: DIVMTQSPLSLPVTPGEPASISCQASESLVHSNRNTYLHWYLQKPGQSPQLLIYKVSNRFSGVPDRFSGSGSGTDFTLKISRVEAEDVGVYYCSQNTHVPPTFGQGTKVEIERTVAAPSVFIFPPSDEQLKSGTASVVCLLNNFYPREAKVQWKVDNALQSGNSQESVTEQDSKDSTYSLSSTLTLSKADYEKHKVYACEVTHQGLSSPVTKSFNRGEC
94.4 | 106 | 93.2 | 110 | GpH7-A5/GpH7-B3 variant S324_01G/GpL16-k0 (antibody, human IgG1, kappa, He Ab: heterodimerized IgG1, one H chain mutated) heavy 1: not shown heavy 2: not shown light: DIVMTQSPLSLPVTPGEPASISCQASESLVHSNRNTYLHWYLQKPGQSPQLLIYKVSNRFSGVPDRFSGSGSGTDFTLKISRVEAEDVGVYYCSQNTHVPPTFGQGTKVEIERTVAAPSVFIFPPSDEQLKSGTASVVCLLNNFYPREAKVQWKVDNALQSGNSQESVTEQDSKDSTYSLSSTLTLSKADYEKHKVYACEVTHQGLSSPVTKSFNRGEC
104 | 103 | 111 | 95.8 | GpH7-A5/GpH7-B3 variant S298_06M/GpL16-k0 (antibody, human IgG1, kappa, He Ab: heterodimerized IgG1, one H chain mutated) heavy 1: not shown heavy 2: not shown light: DIVMTQSPLSLPVTPGEPASISCQASESLVHSNRNTYLHWYLQKPGQSPQLLIYKVSNRFSGVPDRFSGSGSGTDFTLKISRVEAEDVGVYYCSQNTHVPPTFGQGTKVEIERTVAAPSVFIFPPSDEQLKSGTASVVCLLNNFYPREAKVQWKVDNALQSGNSQESVTEQDSKDSTYSLSSTLTLSKADYEKHKVYACEVTHQGLSSPVTKSFNRGEC
81.6 | 58.6 | 106 | 67.4 | GpH7-A5/GpH7-B3 variant S298_12R/GpL16-k0 (antibody, human IgG1, kappa, He Ab: heterodimerized IgG1, one H chain mutated) heavy 1: not shown heavy 2: not shown light: DIVMTQSPLSLPVTPGEPASISCQASESLVHSNRNTYLHWYLQKPGQSPQLLIYKVSNRFSGVPDRFSGSGSGTDFTLKISRVEAEDVGVYYCSQNTHVPPTFGQGTKVEIERTVAAPSVFIFPPSDEQLKSGTASVVCLLNNFYPREAKVQWKVDNALQSGNSQESVTEQDSKDSTYSLSSTLTLSKADYEKHKVYACEVTHQGLSSPVTKSFNRGEC
82.5 | 65.4 | 106 | 83.2 | GpH7-A5/GpH7-B3 variant S298_03V/GpL16-k0 (antibody, human IgG1, kappa, He Ab: heterodimerized IgG1, one H chain mutated) heavy 1: not shown heavy 2: not shown light: DIVMTQSPLSLPVTPGEPASISCQASESLVHSNRNTYLHWYLQKPGQSPQLLIYKVSNRFSGVPDRFSGSGSGTDFTLKISRVEAEDVGVYYCSQNTHVPPTFGQGTKVEIERTVAAPSVFIFPPSDEQLKSGTASVVCLLNNFYPREAKVQWKVDNALQSGNSQESVTEQDSKDSTYSLSSTLTLSKADYEKHKVYACEVTHQGLSSPVTKSFNRGEC
